# According to the DeepSol protein solubility set:
# Test: soluble on expression in E. coli; label from the status in PepcDB or PDB records
row,Sequence,soluble on expression in E. coli
1,MAHHHHHHMIVELNPANFHKVVKDPSKNVFVMFYAPWCGHCNNMKPMWLELADKYPTAEDVIIARIDASEYRGIAKEFDIRGFPTLKFFSKRDKSGEIEYDGPRELSAFVAYVATNKQ,not soluble
2,MPEMADVMQTQAGDAGAFRHFDLSRVPTPCFVVDEVAIERNLKILRDISDRSGAHVLSALKAFSMFTLAPLVRQYLGGTCASGIYEARLGREEYGGEVATFCAGYKEQDIDEILSLSNHIIFNSPAQKDRFLSRAQAAGVQVGLRINPEHSEGEIAKYDPCAPCSRLGTPVSLLTPETLKGVDGLHMHTLCEQGFEPLLRTWAAVEPKLAPYLPGLKWLNFGGGHHITRADYDRDALIDFLKSLRARHGLDVYLEPGEAVALDAGILVGEILDLPSNGMDLAITDISATCHMPDVIEAPYRPALMDEADSGHTYRLGGPSCLAGDVIGDYTWDQPLTIGQRFAFLDQAHYSMVKTNTFNGVPLPTIALWNSKTDALRIVRQFDYSDFKDRLS,not soluble
3,GKSASGEKEGNENAEEEAAAIEEARREAEERRKEKHRKMEEEREEMRQTIRDKYGLKKKVKEEPEAEADLDEGRVGRKK,soluble
4,MHFYKYGVLINQLSDSFEWRVAFLDGSVSDHCCITVPSEKFNFPPTPGATVKAKFEHANSFLPSLVAQCGSFEWFRDVTVVNSKVVIFAIVHFSNECLERDPFKINGMDYSIIENENTDFQKIVLPTRVLQTSITSRSNLQNTDTPFIYRIGVCWEPISFENGVTVNWRYYADFPITPIFELYYRETTLPYIAESMVYGVLEGVVIAENDHGALFWTPKMGCAILPSTSLDTPMPSLGSVHVILVKRCIPENSFGFSCSYELLSSFRSTEWPNLKVITDQITRKVYIEANASCRSMMENQDFPSMNVPHIGKVFRGLQQYRDKLSAGHLYDFRMEFQKEEGSFVPTIVDLCLEEDEMVDCRVVYISNETSTYFAVLDPSSNSFDRFKQSIDYIAIPFRVLFCANGVHVKNEELLLNSYKVRVRVPRNRHDVVNAIHVEHVIQSPKDPAYFITNGSVWLRTTVKFQNASRYELLCPLLEQKIIDVNGVTAAMSLTQEFTVHAQFVLMERNVPVFVVRQLASTVREHPRTTNYPSRSLNLSYEVSGALARTNPNGQLSAADNNIVLINDSISLDHNLPDTGEYPTILNESSFERQLLFDNQSIADSASTSGDFILTESVYESSSAASTCTVIDRNDARFSALNDDSNILISESWLDSTNQHSETTMDTPEIITESFYESTHDQASSRASTVDRLASDVDKISIGRPDYSPPPRRRIFGYSTPGDRVRPRNSYGSSSSGSLNGRPKRRAPYGFRQIRNITPHNVLLRDIIYNNINNRKMFVEQNKNAILKCWNRLPLAQVTRTTKLSVTVIAVESIKFPPSFDETCIKGLVRFVALGVGVDINLRNMSIVVPIGGKFNNLPKSFQLGETYRVYHFSSKVDRICRLGGFSFGLKGGMRNEEPPDRNNWFSDPQTVNGRDGQSYLRCTVNAERPANAEIESDFFELWSTTALPGFIIVEKVPQLMKHLNEELLDPDVHSRFTYSCVIEPLAGGPVEASILKDLKYDEEFCIFWRLVVEFSDTVPLPRLIIKSKIYVPPPPVVPVYVTPFTVNDFGCWETHRINSILHQARIDRLRAAGHMRVKMLDGPDMKPEIEIRKVDVNTRREKMFTAFDALLEKLPQLHSEGILEYVLEDDLREKIEYLLPMTDDNHKFQFRARNDSLTIGLNYLTDMLTKGKVYKMLYEKQEYVPLLKVLSDCIGLNTTYIKKTDAVTMMLQFMYRNELHTYM,not soluble
5,MEEKDWEGSPLSENEAGLLCYDDEEYQFGGPAPKLQFRYLSEIGELQLLGDEDDVVISLKDLYGEIAEGKYGCCWENYEVYRYLKGLGYILGRHGVPWTTKYAVNTTPSDEDESLCAAEFFQDRDSVTKLLSDMHICDARPVFDVYLPNSQFKKSSPGEPSFVTCFSG,soluble
6,MPPAGQDDLDFLKYAMESYVADVNADIGKTTIVFTLREKAGALAETLKLFQAHDVNLSHIESRPSKTHEGCYEVLVEFAEAEDHRKIEGVIEHFQQKAEKKVLVQDWNTKNKQNKDSVPWFPQKINDIDQFANRILSYGAELDADHPGFKDMTYRERRKFFADIAFNFKHGDKIPTITYTDEEIATWRTVYNELTVMYPKNACQEFNYIFPLLQQNCGFGPDRIPQLQDVSDFLKDCTGYTIRPVAGLLSSRDFLAGLAFRVFHSTQYIRHHSAPKYTPEPDICHELLGHVPLFADVEFAQFSQEIGLASLGAPDDVIEKLATLYWFTIEFGICQQDGEKKAYGAGLLSSFGELQYALSDKPEVVDFDPAVCCVTKYPITEYQPKYFLAESFASAKNKLKSWAATINRPFQIRYNAYTQRVEILDKVAALQRLARDIRSDISTLEEALGKVNNLKMK,not soluble
7,MNKTPRVGFVSLGCPKAASDSEQILTRLRAEGYEIAPSYDGADLVVVNTCGFIDSAVEESLDAIGEALNENGKVIVTGCLGAKGDVVRDVHPSVLAVTGPHATEEVMSAVHTHLPKPHDPFVDLVPDIGVRLTPKHYAYLKISEGCNHRCTFCIIPSMRGDLESRPIHDVLREAESLAKAGVKEILVISQDTSAYGVDTKYKLGFHNGRPVKTRMTELCEELGRHGIWVRLHYVYPYPHVDEVIPLMRDGKILPYLDIPFQHASQKVLKLMKRPANSDNVLARIKKWREICPELVIRSTFIVGFPGETEEDFEELLAFIREAELDRVGCFTYSPVEGATANELPNPVPEDVKEARKERFMAVQAEISARRLERRVGQTLQVLVDEIDDEGTAVCRSYADAPEIDGLVFVEDAAGMQPGEFYQVEIVDCSEHDLWGERRLEHHHHHH,soluble
8,KREPALNPNEYKKFMLREKQIINHNTRLFRFNLHHPEDVVGLPIGQHMSVKATVDGKEIYRPYTPVSSDDEKGYFDLIIKVYEKGQMSQYIDHLNPGDFLQVRGPKGQFDYKPNMVKEMGMIAGGTGITPMLQVARAIIKNPKEKTIINLIFANVNEDDILLRTELDDMAKKYSNFKVYYVLNNPPAGWTGGVGFVSADMIKQHFSPPSSDIKVMMCGPPMMNKAMQGHLETLGYTPEQWFIF,soluble
9,MKSYHKELWMEVPSRMDFVNITRDVSRALDESGIREGLCLVNAMHITASVFINDDEPGLHADYKQWLEELAPHNPSHYQHNRTGEDNGDAHHKRQIMGREVVVAVTKGELHLGPWEQIFYGEFDGRRRKRVLIKIIGALEHHHHHH,soluble
10,MGSDKIHHHHHHVTTIRFLNGLNTIGGNIVEFATKTSRVIMDFGVAADLSNETVSSAIDNGKLPHVPELFFDQPDVYTHEAIFISHLHIDHMGALQYLKKPIPIYLSEPSYKLYQLLIKLGIEKPVANLHPLAYEQPLTIGDLTVTGFHSDHDEPGVMALLVDDGSRRYAHSGDVRLNGPHAKRVHAWAKRFNQEKLSLFMLEGTSFSFDTAAPVEDQDHPSIPLTEMSLQKQFQTVLAESPTLVVINPYIRNYERLASFQASAHTAGRQLVWEPDDAAVLTTMTDQKPDAILGQTISLTDIARDPQHYVLQNSFDHLERLTDMPITTYIHSNGEPLGDYDPRFAQLKDWLEAHHIPLQFMNASGHASREDLITLAKEVNPRTIVPWHSFHPEREAEALDTQTNAAVVLPERDLYYDFDELSEDE,not soluble
11,MGSSHHHHHHGGTGENLYFQGGSGNRIDISNFDFLYVIGKGTYGIVYKALDKKENNFVAIKKIINLCDENYGISKCILRELTILQKIKHKNIINLKYVFYGKDIEDKLKGENLENSCLYLAFEYCDIDLFNLIKKHNLNIKEIKYIIFELLLALSYFHSNNYIHRDIKPENIFITSEGEIKLGDLGMSVEKSDHMTPTVVTLWYRAPEILLKSTNYDQKVDIWSLGCLFMELIQGRPLFPGKNDCTQLELIYLLLGDKDKLTTVDKERKDMFPYFEINMLKDAIDDEHTLDLISKMLIYDPNYRISSKEALKHPCFQDIEQVKFSYNF,not soluble
12,MRVLLIEKNSVLGGEIEKGLNVKGFMADVTESLEDGEYLMDIRNYDLVMVSDKNALSFVSRIKEKHSSIVVLVSSDNPTSEEEVHAFEQGADDYIAKPYRSIKALVARIEARLRFWGSNVIEIGDLTISPDEEKIIYKGREVEVKGKPFEVLTHLARHRDQIVSKEQLLDAIWEEPEMVTPNVIEVAINQIRQKMDKPLGISTVETVRRRGYRFCYPKPACEE,soluble
13,MRFVDFFNALLEGKVIGQKCGDCGSYTCPPKATCDNCGSRNLEAVELSGKGVIRTFTTTYVAPSGYTNEAPYTVAMVELDEGPWIVGRIDLPNEEIEKFGQDLIGARVSVYGKEFPTEPFYPDKKRRVVPMFRLEGLEHHHHHH,soluble
14,MGSDKIHHHHHHMTTLGVVYDKFLSPYFAGGGAVHAYEVTIRLKEHFKIVYYPSSPVLSWDKENVEKKAKELESQGIKVADEFYEILEEKRRIGRLKRFLFADKIAREFSKGFKVDADILYEPDHTSLDIFYLARDTKYGVTFHEPPFYNNSLRYFRRLVKFYGVNPYTGKGFHTRFLYNEYIKYLYKRLFKKVKKPTFLAGVSEAPLLESGLGGEVIKPGNAFNPSLLKFRNRGKEDYVVFWSRLNQDKGFHELPDILRIMEKRGGNKVRLILMGKFFDKYNERRFWSKVRKYDLRVDYKGFVKREELADIVSKAKVLIYPSHVDGFSLVALESLALGTPVVAYDIPAIKSVYGGLECVRIVNEFDKESMAENALKFYKMSEKEIEEIMNGDKLMEFLKLHSNWDNVANSVLKILKKYLI,not soluble
15,EVKLEESGGGLVQPGGSMKLSCAASGFTFSDAWMDWVRQSPEKGLEWVAEIRSKVNNHAIHYAESVKGRFTVSRDDSKSSVYLQMNSLRAEDTGIYYCSGWSFLYWGQGTLVTVSAAKTTPPSVYPLAPGSAAQTNSMVTLGCLVKGYFPEPVTVTWNSGSLSSGVHTFPAVLQSDLYTLSSSVTVPSSTWPSETVTCNVAHPASSTKVDKKIVPRD,soluble
16,MGSDKIHHHHHHMNILLVDDDRFIIEALREKINWAKLHIDIVYVAYSLTQAQNIIREHPIDLMISDIEMPQGSGLELLSWIRNEKYDIKTIFLTNYADFNYAQKAIELQSFEYYLKPINFEKLEFIIQKAISKIENHNLNGKNDSLLQIEDNFWYDYLRKPQISRIDELENIASKQDFILKQHQYFFLAVLTINLNEEDYSVETPSWTSQLKRELQRISQPSYKLISLFKMESQVDQYVCLFRVDSSKRSDKLAYEIHSQISNNFSKYSNIIYKSCHKISDILFHTKELYTYNEQYVSYWNTITCVPHSFPTSFKTETLSITFLDTLSEYELREKINSLAYNSQIPTFTLQQILLDWTQQIGIYLDQNGISAHKLFQNSTHDFLFQRRFHSIESFQDYFDYYWSHAKKFATNIENQKNSIQRIVEYIDHHYYEDINRSILADVVYLSADHLARIFKKETGETLVKYITDKRINAAKSLLSQTNISISQVSCQVGYDNYSYFTKIFKQRTGLSPGDYRKTYQNKM,not soluble
17,MIKVVGLGPGSKNALTLGTLEAVKNSQNIFFRTKKHPVVEYFDEIGIKYSTYDDKYETGESFDEVYDFIARDLVSKAKELKDIVYAVPGHPLVAEKSVQILIELCEKENIKVDIVPAVSFIDALMESLKIDPVKGLKIVDAFDIKNQILDKRLGIVITQVYNSFIASDVKLALLEYYKDDTEIYFVRAAGIENEESVRKIPLYELDRQSDIDYLTSVYVPCDINNNKDFYDLLNIMEILRGENGCPWDREQSHDTIKRALIEECYEAVEAIEKNDDDMMVEELGDVLFQVVFHAKIGKDEGYFNINDVISGICNKMIERHPHVFKNEQIKNSTEVLQKWDEIKRKQQDLNSYTEEMKHIPKILPALIRAEKVQKKASKVGFDFRNVEEALDKVLEETREVKDVYKGIIRDRIAEEVGDLIFSVVNIARLLDIDSEFALNYTIDKFIKRFYYIEKAAKDKNLKIESMSLEEMNALWDEAKLKIQ,not soluble
18,MRTFDDMLSKQLQDEEFKKEYDAIQPEMDVIRAIVDARTSQNMTQKELAERTGINQADISKLENGTRNPSVNLLKRLADAEMVLVRGSKDNVKPTQND,not soluble
